Assay results as given in US20230365705A1 (DYNAMICURE BIOTECHNOLOGY, published 2023).
One block for each binder: values may come before it.

How the values were obtained:
[1] = biological target: T1, cynomolgus CD93 protein (made in-house) (cynomolgus, UniProt A0A2K5VH53 22-580); assay: BLI (Octet QKe), biotinylated CD93 on streptavidin biosensors; table under the cynoCD93 panels
T1 construct: Biotinylated in BLI; also called cyno CD93; cynoCD93
T1 sequence: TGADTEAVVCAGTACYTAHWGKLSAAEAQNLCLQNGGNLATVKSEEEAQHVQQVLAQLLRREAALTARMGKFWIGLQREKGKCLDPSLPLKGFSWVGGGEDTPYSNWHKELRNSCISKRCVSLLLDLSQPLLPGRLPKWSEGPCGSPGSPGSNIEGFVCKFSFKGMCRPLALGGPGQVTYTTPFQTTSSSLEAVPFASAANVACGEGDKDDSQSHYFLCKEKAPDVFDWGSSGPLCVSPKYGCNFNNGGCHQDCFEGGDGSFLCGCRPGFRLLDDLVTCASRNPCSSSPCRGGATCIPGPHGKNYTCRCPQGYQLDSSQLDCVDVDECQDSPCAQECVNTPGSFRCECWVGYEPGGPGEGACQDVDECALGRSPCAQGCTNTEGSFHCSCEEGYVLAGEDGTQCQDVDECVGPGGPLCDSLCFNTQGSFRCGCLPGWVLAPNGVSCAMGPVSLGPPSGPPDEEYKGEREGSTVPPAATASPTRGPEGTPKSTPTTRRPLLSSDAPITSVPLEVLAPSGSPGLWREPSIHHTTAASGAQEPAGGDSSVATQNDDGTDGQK
Procedure: The binding affinity of anti-CD93 antibodies were determined with bio-layer interferometry using Octet QKe (Fortebio). Human CD93 recombinant protein (Sino Biological Inc, Catalog #12589-H08H) or cynomolgus CD93 protein (made in-house) were biotinylated using EZ-LINK NHS-PEG4 biotin (Thermo Fisher Scientific). Streptavidin biosensors (Fortebio) were used to load biotinylated CD93 protein (300 seconds at 5 μg/ml). The baseline was stabilized for 60 seconds in a 1× kinetics buffer (Fortebio) before serially diluted anti-CD93 antibodies were allowed to associate for 300 seconds with captured protein. The sensors were dissociated in a 1× kinetics buffer for 600 seconds.

[2] = biological target: T2, Human CD93 on cells (human CD93 expressing CHO cells; HUVEC, U937 and KG1a cells) (human, UniProt Q9NPY3 22-652); assay: flow cytometry blocking assay, CHO-hCD93 cells; blocked ligand hMMRN2 495-674 at 0.1 ug/ml, APC anti-His
T2 construct: whole, on cells; also called hCD93 expressing CHO cells; hCD93 CHO cells
T2 sequence (looked up): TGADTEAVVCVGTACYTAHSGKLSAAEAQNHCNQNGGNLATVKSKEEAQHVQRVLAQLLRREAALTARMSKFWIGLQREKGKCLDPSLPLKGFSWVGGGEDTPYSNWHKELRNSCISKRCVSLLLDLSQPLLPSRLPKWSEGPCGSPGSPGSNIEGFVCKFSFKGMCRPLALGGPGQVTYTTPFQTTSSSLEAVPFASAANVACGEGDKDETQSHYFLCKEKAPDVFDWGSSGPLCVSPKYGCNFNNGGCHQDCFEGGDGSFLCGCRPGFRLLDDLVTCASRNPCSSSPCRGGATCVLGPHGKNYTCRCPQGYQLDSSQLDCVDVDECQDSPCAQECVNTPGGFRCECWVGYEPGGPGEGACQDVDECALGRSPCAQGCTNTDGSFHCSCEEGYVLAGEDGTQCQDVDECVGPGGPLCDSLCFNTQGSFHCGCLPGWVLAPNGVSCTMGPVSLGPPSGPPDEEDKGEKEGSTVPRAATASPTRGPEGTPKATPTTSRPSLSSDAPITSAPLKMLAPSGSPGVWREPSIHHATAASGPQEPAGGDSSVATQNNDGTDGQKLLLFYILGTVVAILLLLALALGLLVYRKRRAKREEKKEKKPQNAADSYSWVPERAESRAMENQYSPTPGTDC
Procedure: (§1) Then the cells were incubated with hMMRN2₄₉₅₋₆₇₄ at 0.1 μg/ml. […] After washing with FACS buffer twice, the samples were analyzed, and data acquired in NovoCyte Flow. Recombinant his tagged hMMRN2₄₉₅₋₆₇₄ was produced internally in E. Coli following routine procedure.

[3] = biological target: T2, Human CD93 on cells (human CD93 …); assay: flow cytometry titration, CHO-hCD93 cells; antibody stored 4 weeks at 40 C
Procedure: (§2) Human CD93 expressing CHO cells were detached by incubation with TrypLE reagents (Thermo Fisher), which preserves the integrity of CD93 on the cell surface. Then the cells were incubated with serial diluted anti-CD93 antibodies for 30 minutes in 4° C. After washing by FACS buffer, the cells were incubated with Alexa Fluor 647 conjugated anti-human IgG (Jackson ImmunoResearch) for 30 minutes at 4° C. After washing by FACS buffer twice, the samples were acquired in NovoCyte Flow Cytometer and analyzed by NovoExpress software.

[4] = biological target: T2, Human CD93 on cells (human CD93 …); assay: flow cytometry blocking assay, CHO-hCD93 cells; blocked ligand hMMRN2 495-674 at 0.1 ug/ml; antibody stored 2 weeks at 40 C
Procedure: as §1

[5] = biological target: T2, Human CD93 on cells (human CD93 …); assay: summary table, column FACS (HUVEC cells); 4 weeks at 40 C
Procedure: as §2, with “HUVEC cells” for “Human CD93 expressing CHO cells”, “minutes at” for “minutes in”, “minutes in” for “minutes at”

[6] = biological target: T2, Human CD93 on cells (human CD93 …); assay: flow cytometry blocking assay, CHO-hCD93 cells; blocked ligand hMMRN2 495-674 at 0.1 ug/ml; blocking activity is 0 up to about 10 ug/ml and appears only at the two highest points
Procedure: Then the cells were incubated with hMMRN2₄₉₅₋₆₇₄ at 0.1 μg/ml. […] Then the cells were washed with FACS buffer and incubated with APC-conjugated anti-His tag antibody at 1 μg/ml for 30 minutes at 4° C. After washing with FACS buffer twice, the samples were analyzed and data acquired in NovoCyte Flow. Recombinant his tagged […] was produced internally in Expi_HEK following routine procedure.

Kd [1]: 0.446 nM | kon [1]: 663000 M⁻¹ s⁻¹
B1: 16E4 (hybridoma) (antibody, IgG2a, V domains shown)
VH: QVQLQQPGAELVKPGASVKLSCKASGYTFTSYWMHWVKQRPGQGLEWIGEIDPSASYTYYNQKFKGKATLTVDKSSSTAYMQLSSLTSEDSAVYYCARSVYYGNKYFDVWGAGTTVTVSS
VL: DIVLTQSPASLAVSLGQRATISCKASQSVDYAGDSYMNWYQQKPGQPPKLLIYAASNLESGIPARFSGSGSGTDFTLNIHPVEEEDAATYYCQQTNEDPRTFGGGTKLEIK
notes: also called 16E4 mAb; 16E4 mIgG2a

IC50 [2]: 0.173 nM | EC50 [3]: 0.195 nM | IC50 [4]: 0.133 nM | EC50 [5]: 1.12 nM
B2: h7F3 (humanized 7F3, VH3+VL3) (antibody, human IgG1, V domains shown)
VH: QVQLVQSGAEVKKPGASVKVSCKASGYTFTDYEMHWVRQAPGQGLEWMGGIDPETGDTAYNQNFKGRVTMTTDTSTSTAYMELRSLTSDDTAVYYCTNYGNLYYYAMDYWGQGTSVTVSS
VL: EIVLTQSPSSLSASVGDRVTITCRASSSVSSSYLHWYQQKPGKAPKLLIYSTSNLAFGVPSRFSGSGSGTSYTFTISSLQPEDIATYYCQQYSGYPLTFGSGTKLEIK
notes: also called humanized 7F3-hIgG1

IC50 [6]: 225 nM
B3: h16E4 (humanized 16E4, VH4+VL6) (antibody, V domains shown)
VH: QVQLVQSGAEVKKPGASVKVSCKASGYTFTSYWMHWVRQAPGQGLEWMGEIDPSASYTYYNQKFKGRVTMTRDKSSSTVYMELSSLTSEDSAVYYCARSVYYGNKYFDVWGAGTTVTVSS
VL: DIQMTQSPSTLSASVGDRVTITCKASQSVDYAGDSYMNWYQQKPGKAPKLLIYAASNLESGVPSRFSGSGSGTEFTLTISSLQPDDFATYYCQQTNEDPRTFGGGTKLEIK
notes: Detected with anti-human IgG, so a human Fc
